Consider two molecules from article PMC5570508 (2017).

The target in assay [1] is α17 F1718A. As to the kind of experiment: FP.
Assay [2] addresses α17 F1716A. As to the kind of experiment: FP.
Assay [3] addresses α17 Q1717A. Description: FP.
The target of assay [4] is α17 Y1713A. Description: FP.
The target in assay [5] is α17 Q1720A. As to the kind of experiment: FP.
Assay [6] has as its target α17 D1723K. Description: FP.
The target in assay [7] is α17 D1722K. Description: FP.
Assay [8] has as its target α17 L1709A. Description: FP.
Assay [9] concerns the target PfEMP1 ATS-Core of variant PFF0845c (P. falciparum). Description: NMR; 50 mM NaCl, 25°C.

B1: PfEMP1 ATS of variant PFF0845c, fluorescently labeled (H159C) (domain or fragment)
chain: KKKTKSTIDLLRVINIPKGDYGIPTMKSKNRYVPYKSGQYNGKKYIYMEGDESDDYTYIGDISSSDITSSESEYEDIDINNIYPYKSPKYKTLIDVVLEPSKRDTFNTQSDIPSDTSTNKFTDNEWNQLKQDFISNISQNSQMDLPKNNISGNIQMDTCPHVNILDDSMQEKPFITSIHDRDLHNGEEVTYNINLDDHKNMNFSTNHDNIPPKNDQNDLYTGIDLINDSISGNHNVNIYDELLKRKENELFGTNHTKHTTTNIVAKQTHNDPIVNQINLFHKWLDRHRNMCEQWDKNKKEELLDKLNEEWNKENKNNSNVTDTNGENNITRVLNSDVSIQIDMNSKPI
modifications: fluorescein (5-FAM; fluorescein-5-maleimide) on the introduced cysteine C159
For orientation: Kd means the equilibrium constant for the complex coming apart. A low value points to higher affinity. With B1, the dissociation constant (Kd) amounted to 63 µM in assay [1]; 300 µM in assay [2]; 28 µM in assay [3]; 63 µM in [4]; 41 µM in assay [5]; 35 µM in assay [6]. Moreover, the Kd in assay [7] was 60 µM; in assay [8], 140 µM.

B2: spectrin α chain domain 17 (domain or fragment)
chain: AHHEKLKEAYALFQFFQDLDDEESWIEEKLIRVSSQDYGRDLQGVQNLLKKHKRLEGELVAHEPAIQNVLDMAEKLKDKAAVGQEEIQLRLAQFVEHWEKLKELAKARGLKLEESLEYLQFMQNA
In assay [9], B2 displayed a Kd of 350 µM.
